PMC11812572 (2025)

Experiments:
[1] = target: T1, recombinant human cytoplasmic dynein 1 complex with mEGFP fused to its heavy chain, mEGFP-dynein (human, UniProt Q14204 1-4646; O43237-1 1-492; P63172 1-113; Q9NP97-1 1-96; P63167 1-89); assay: apparent, from TIRF dynein activation (run frequency); with 14 nM dynactin and 200 nM NuMA^N-term
[2] = target: T1, recombinant human cytoplasmic dynein 1 …; assay: apparent, from TIRF dynein activation (run frequency); with 14 nM dynactin and 100 nM Lis1

Kd [1] [nM] | Kd [2] [nM] | Binder
148 |  | Lis1 (protein, full-length human Lis1; N-terminal His6-TEV tag (unlabelled construct) or mCherry fusion left out; homodimer by general knowledge, copy number not printed in the text given) MVLSQRQRDELNRAIADYLRSNGYEEAYSVFKKEAELDVNEELDKKYAGLLEKKWTSVIRLQKKVMELESKLNEAKEEFTSGGPLGQKRDPKEWIPRPPEKYALSGHRSPVTRVIFHPVFSVMVSASEDATIKVWDYETGDFERTLKGHTDSVQDISFDHSGKLLASCSADMTIKLWDFQGFECIRTMHGHDHNVSSVAIMPNGDHIVSASRDKTIKMWEVQTGYCVKTFTGHREWVRMVRPNQDGTLIASCSNDQTVRVWVVATKECKAELREHEHVVECISWAPESSYSSISEATGSETKKSGKPGPFLLSGSRDKTIKMWDVSTGMCLMTLVGHDNWVRGVLFHSGGKFILSCADDKTLRVWDYKNKRCMKTLNAHEHFVTSLDFHKTAPYVVTGSVDQTVKVWECR
 | 51 | AF546- or AF647-labelled SNAP-tagged human NuMA N-terminal fragment (first 705 aa), NuMA^N-term (domain or fragment, SNAP-tag labelled with SNAP-Surface Alexa Fluor 546 or SNAP-Surface Alexa Fluor 647) MTLHATRGAALLSWVNSLHVADPVEAVLQLQDCSIFIKIIDRIHGTEEGQQILKQPVSERLDFVCSFLQKNRKHPSSPECLVSAQKVLEGSELELAKMTMLLLYHSTMSSKSPRDWEQFEYKIQAELAVILKFVLDHEDGLNLNEDLENFLQKAPVPSTCSSTFPEELSPPSHQAKREIRFLELQKVASSSSGNNFLSGSPASPMGDILQTPQFQMRRLKKQLADERSNRDELELELAENRKLLTEKDAQIAMMQQRIDRLALLNEKQAASPLEPKELEELRDKNESLTMRLHETLKQCQDLKTEKSQMDRKINQLSEENGDLSFKLREFASHLQQLQDALNELTEEHSKATQEWLEKQAQLEKELSAALQDKKCLEEKNEILQGKLSQLEEHLSQLQDNPPQEKGEVLGDVLQLETLKQEAATLAANNTQLQARVEMLETERGQQEAKLLAERGHFEEEKQQLSSLITDLQSSISNLSQAKEELEQASQAHGARLTAQVASLTSELTTLNATIQQQDQELAGLKQQAKEKQAQLAQTLQQQEQASQGLRHQVEQLSSSLKQKEQQLKEVAEKQEATRQDHAQQLATAAEEREASLRERDAALKQLEALEKEKAAKLEILQQQLQVANEARDSAQTSVTQAQREKAELSRKVEELQACVETARQEQHEAQAQVAELELQLRSEQQKATEKERVAQEKDQLQEQLQ
